Changes are numbered by the printed parent chain. Values belong to the binder of their own block, whether it stands above or below them.
Legend:
[1] = target: T1, recombinant human IL-23 (human, UniProt Q9NPF7 20-189; P29460 23-328); assay: SPR (Biacore 3000), hybridoma supernatant mAb captured on anti-murine IgG, human IL-23 analyte, 1:1 model, 25 C
T1 construct: also called hIL-23
T1 sequence 1: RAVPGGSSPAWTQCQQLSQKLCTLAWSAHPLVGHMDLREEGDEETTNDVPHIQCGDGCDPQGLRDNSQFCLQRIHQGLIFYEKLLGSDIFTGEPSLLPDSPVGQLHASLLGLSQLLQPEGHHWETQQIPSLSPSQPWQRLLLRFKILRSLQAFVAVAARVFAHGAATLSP
T1 sequence 2: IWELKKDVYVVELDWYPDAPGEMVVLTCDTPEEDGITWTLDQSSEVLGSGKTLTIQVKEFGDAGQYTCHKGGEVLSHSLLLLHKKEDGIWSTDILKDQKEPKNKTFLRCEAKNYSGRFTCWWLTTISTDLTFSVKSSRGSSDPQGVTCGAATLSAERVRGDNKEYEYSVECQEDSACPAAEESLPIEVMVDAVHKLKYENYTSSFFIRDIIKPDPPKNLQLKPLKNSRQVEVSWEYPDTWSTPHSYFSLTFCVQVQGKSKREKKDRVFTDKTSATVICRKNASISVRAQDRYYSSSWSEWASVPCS
Experimental: (§1) Anti-murine IgG was immobilised on a CM5 sensorchip using amine coupling chemistry. Anti-IL-23 hybridoma antibody sample was injected over the surface and the murine mAb captured. Subsequently recombinant human IL-23, recombinant cynomologus IL-23 or recombinant human IL-12 was flowed over the captured antibody surface at 5 different concentrations (range 0 nM-91 nM) to obtain binding sensorgrams. Regeneration of the surface after antibody and antigen injections was done by injecting 0.1 M phosphoric acid for 3 minutes. Double referencing was used on all sensorgrams with a buffer injection over the anti-murine IgG sensorchip surface. The experiment was performed at 25° C. in HBS-EP buffer. Resulting sensorgram data was analysed using the 1:1 binding model incorporated within the Biaevaluation software for the Biacore 3000 instrument. Data presented in Table 2 are from using hybridoma supernatant taken from a tissue culture flask.

[2] = target: T2, recombinant cynomologus IL-23 (cynomolgus, limits assumed); assay: SPR (Biacore 3000), hybridoma supernatant mAb captured on anti-murine IgG, cynomologus IL-23 analyte, 1:1 model, 25 C
T2 construct: also called cynomolgus IL-23; cyno IL23
T2 chain 1: T1 sequence 1 with T12A, H75R, L131P
T2 chain 2: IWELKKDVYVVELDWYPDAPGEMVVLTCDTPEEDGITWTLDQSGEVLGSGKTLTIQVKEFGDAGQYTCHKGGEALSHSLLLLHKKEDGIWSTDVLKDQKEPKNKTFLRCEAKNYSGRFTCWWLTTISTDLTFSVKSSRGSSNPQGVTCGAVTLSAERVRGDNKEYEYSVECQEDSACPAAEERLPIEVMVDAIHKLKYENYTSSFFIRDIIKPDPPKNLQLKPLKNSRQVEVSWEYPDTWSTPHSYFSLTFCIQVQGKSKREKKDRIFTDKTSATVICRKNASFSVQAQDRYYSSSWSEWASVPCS
Experimental: as §1

[3] = target: T3, Endogenous human IL-23 (human, UniProt Q9NPF7 20-189; P29460 23-328); assay: receptor inhibition ELISA: plate coated with recombinant human IL-23 receptor, endogenous human IL-23 at 3.5 ng/ml pre-incubated with titrated purified antibody, bound IL-23 detected with biotinylated anti-human IL-12; 1% BSA
T3 construct: also called endogenous human IL-23 from stimulated dendritic cells
T3 sequence 1: T1 sequence 1
T3 sequence 2: T1 sequence 2
Experimental: Recombinant human IL-23 Receptor (R&D systems 1400-IR-050) was coated onto 96 well plates at a concentration of 1 μg/ml. Endogenous human IL-23 at 3.5 ng/ml final, was pre incubated for 1 hour with a titration of purified antibody material before being added to the pre-coated plates. Detection was performed with biotinylated anti-human 1L12 (R&D systems BAF-219) followed by Streptavidin-HRP (GE Healthcare RPN 4401). This neutralisation ELISA used 1% BSA.

[4] = target: T1, recombinant human IL-23; assay: IL-23/IL-23R inhibition ELISA (first protocol, OD490): plate coated with human IL23R Fc chimera, antibody pre-incubated with constant human IL-23, bound IL-23 detected with biotinylated anti-human IL-12; tissue culture supernatant
Experimental: Chimeric and humanized mAbs were assessed for their ability to neutralise human IL-23 binding to human IL-23 receptor, and cyno IL23 binding to human IL23 receptor. Plates were coated with human IL23R Fc chimera at 1 μg/diluent (bicarbonate buffer). 50 μl/well of this mixture was incubated overnight at 4° C. The plates were then washed twice with Tris Buffered Saline with 0.05% Tween 20 (TBST). Plates were blocked with 1% BSA TBST 100 μl/well for a minimum of 1 hour at room temperature. The plates were then washed twice with Tris Buffered Saline with 0.05% Tween 20 (TBST). Various concentrations of antibody were incubated in a separate plate with a constant concentration of IL-23 for 1 hour at room temperature. 50 ul of each mixture were transferred to the assay plate and incubated at RT for 1 hr. They were then washed twice with Tris Buffered Saline with 0.05% Tween 20 (TBST). Bound IL23 was detected by anti human 1L12 Biotin labelled Ab (R&D systems BAF219) diluted to 100 ng/ml in 1% BSA TBST. 50 μl/well of the biotinylated antibody was added and incubated at RT for 1 hour. The plates were then washed twice with Tris Buffered Saline with 0.05% Tween 20 (TBST). ExtrAvidin-Peroxidase (Sigma E2886) was diluted 1/1000 in 1% BSA TBST, 50 μl/well was added to the plates. […] The plate was read at OD490 nm using the SOftmaxPRO versamax plate reader.

[5] = target: T1, recombinant human IL-23; assay: SPR (Biacore 3000), CHO supernatant antibody captured on Protein A or anti-human IgG, IL-23 analyte at 256, 64, 16, 4 nM
[6] = target: T1, recombinant human IL-23; assay: sandwich ELISA (optimised protocol, OD450): plate coated with anti-human IL-12, antibody pre-incubated with constant human IL-23, bound antibody detected with anti-human IgG gamma chain HRP; purified antibody
Experimental: Optimised assay conditions: Plates were coated with anti human IL12 at 2 μg/diluent (phosphate buffered saline). 50 μl/well of this mixture was incubated overnight at 4° C. The plates were then washed three times with Phosphate Buffered Saline with 0.05% Tween 20 (PBST). Plates were blocked with 4% skim milk powder (Fluka BioChemika #70166) PBS 200 μl/well for a minimum of 1 hour at room temperature. The plates were then washed three times with Phosphate Buffered Saline+0.05% Tween 20 (PBST). Various concentrations of antibody were incubated in a separate plate with a constant concentration of IL-23 for 1 hour at room temperature. 50 ul of each mixture were transferred to the assay plate and incubated at RT for 1 hr. They were then washed three times with Phosphate Buffered Saline+0.05% Tween 20 (PBST). […] 50 μl/well of the detection antibody was added and incubated at RT for 1 hour. The plates were then washed three times with Phosphate Buffered Saline+0.05% Tween 20 (PBST). 50 μl/well of TMB was added to the plates and incubated at RT for 10 min. 50 μl/well of 1 MH₂SO₄ was added. The plate was read at OD450 nm using the SOftmaxPRO versamax plate reader.

[7] = target: T2, recombinant cynomologus IL-23; assay: IL-23/IL-23R inhibition ELISA (optimised protocol, OD450): plate coated with human IL23R Fc chimera, antibody pre-incubated with constant cynomolgus IL-23, bound IL-23 detected with biotinylated anti-human IL-12; purified antibody
Experimental: (§2) Optimised protocol: Plates were coated with human IL23R Fc chimera at […] (phosphate buffered saline). 50 μl/well of this mixture was incubated overnight at 4° C. The plates were then washed three times with Phosphate Buffered Saline with 0.05% Tween 20 (PBST). Plates were blocked with 4% skim milk powder (Fluka BioChemika #70166) PBST 100 μl/well for a minimum of 1 hour at room temperature. The plates were then washed three times with Phosphate Buffered Saline+0.05% Tween 20 (PBST). Various concentrations of antibody were incubated in a separate plate with a constant concentration of IL-23 for 1 hour at room temperature. 50 ul of each mixture were transferred to the assay plate and incubated at RT for 1 hr. They were then washed three times with Phosphate Buffered Saline+0.05% Tween 20 (PBST). Bound IL23 was detected by anti human 1L12 Biotin labelled Ab (R&D systems BAF219) diluted to 100 ng/ml in 4% skim milk powder (Fluka BioChemika #70166) PBST. 50 μl/well of the biotinylated antibody was added and incubated at RT for 1 hour. The plates were then washed three times with Phosphate Buffered Saline+0.05% Tween 20 (PBST). SA HRP (GE healthcare RPN4401) was diluted 1/4000 in 4% skim m ilk powder (Fluka BioChemika #70166) PBS, 50 μl/well was added to the plates. The plates were then washed three times with Phosphate Buffered Saline+0.05% Tween 20 (PBST). 50 ul/well of TMB was added to the plates and incubated at RT for 15 min. 25 μl/well of 3 MH₂SO₄ was added to the wells already containing TMB. The plate was read at OD450 nm using the SOftmaxPRO versamax plate reader.

[8] = target: T1, recombinant human IL-23; assay: SPR (Biacore T100), CHO supernatant antibody captured on Protein A or anti-human IgG, IL-23 analyte at 256, 64, 16, 4, 1 nM
[9] = target: T1, recombinant human IL-23; assay: IL-23/IL-23R inhibition ELISA (optimised protocol, OD450): plate coated with human IL23R Fc chimera, antibody pre-incubated with constant human IL-23, bound IL-23 detected with biotinylated anti-human IL-12; purified antibody
Experimental: as §2

Kd [1]: 2.99 nM
koff [1]: 0.000301 s⁻¹
kon [1]: 101000 M⁻¹ s⁻¹
Kd [2]: 3.38 nM
koff [2]: 0.000369 s⁻¹
kon [2]: 110000 M⁻¹ s⁻¹
IC50 (read off the curve) [3]: ~0.06 µg/mL
B1: murine mAb 8C9 2H6 (antibody, V domains shown)
VH: QVQLQQSGAELARPGTSVKLSCKASGYTFTSYGITWVKQRTGQGLEWIGENYPRSGNTYYNEKFKGKATLTADKSSSTAYMELRSLTSEDSAVYFCARCEFISTVVAPYYYALDYWGQGTSVTVSS
VL: DIVLTQSPASLAVSLGQKATISCKASKKVTIFGSISALHWYQQKPGQPPKLIYNGAKLESGVSARFSDSGSQNRSPFGNQLSFTLTIDPVEADDAATYYCLQNKEVPYTFGGGTKLEIK
notes: Murine hybridoma antibody; also called mouse parental; IL-23 murine 8C92H6 mAb

Kd [5]: 1.5 nM
koff [5]: 0.00041 s⁻¹
kon [5]: 280000 M⁻¹ s⁻¹
EC50 (read off the curve) [6]: ~0.04 nM
IC50 (read off the curve) [7]: ~1 nM
Kd [8]: 1.6 nM
koff [8]: 0.00038 s⁻¹
kon [8]: 240000 M⁻¹ s⁻¹
IC50 (read off the curve) [9]: ~0.8 nM
B4: A3N2 (antibody, human IgG1, kappa, V domains shown)
VH: QVQLVQSGAEVKKPGSSVKVSCKASGYTFTSYGITWVRQAPGQGLEWMGENYPRSGNTYYNEKFKGRVTITADKSTSTAYMELSSLRSEDTAVYYCARSEFISTVVAPYYYALDYWGQGTLVTVSS
VL: DIVMTQTPLSLSVTPGQPASISCKASKKVTIFGSISALHWYLQKPGQPPQLIYNGAKLESGVSDRFSDSGSGTDFTLKISRVEAEDVGVYYCLQNKEVPYTFGGGTKVEIKR
notes: Full length chains

The next lines start with the binder.

B2: A3M1 (antibody, human IgG1, kappa, V domains shown)
VH: B4 VH
VL: DIVMTQSPDSLAVSLGERATINCKASKKVTIFGSISALHWYQQKPGQPPKLIYNGAKLESGVSDRFSDSGSQNRSPFGNQLSFTLTISSLQAEDVAVYYCLQNKEVPYTFGGGTKVEIKR
notes: Full length chains
IC50 (read off the curve) [4]: ~0.01 µg/mL
Kd [5]: 1.5 nM
koff [5]: 0.00036 s⁻¹
kon [5]: 240000 M⁻¹ s⁻¹
EC50 (read off the curve) [6]: ~0.04 nM
IC50 (read off the curve) [7]: ~0.8 nM
Kd [8]: 2.4 nM
koff [8]: 0.00031 s⁻¹
kon [8]: 130000 M⁻¹ s⁻¹
IC50 (read off the curve) [9]: ~0.5 nM

B3: A3N1 (antibody, human IgG1, kappa, V domains shown)
VH: B4 VH
VL: DIVMTQTPLSLSVTPGQPASISCKASKKVTIFGSISALHWYLQKPGQPPQLIYNGAKLESGVSDRFSDSGSQNRSPFGNQLSFTLKISRVEAEDVGVYYCLQNKEVPYTFGGGTKVEIKR
notes: Full length chains
Kd [5]: 2.3 nM
koff [5]: 0.00039 s⁻¹
kon [5]: 170000 M⁻¹ s⁻¹
EC50 (read off the curve) [6]: ~0.04 nM
IC50 (read off the curve) [7]: ~0.9 nM
Kd [8]: 4.1 nM
koff [8]: 0.00035 s⁻¹
kon [8]: 84000 M⁻¹ s⁻¹
IC50 (read off the curve) [9]: ~1 nM

From patent US20090123479A1 (published 2009)
